In patent publication CN113667015A:

T1: 人PSGL-1 (on THP-1 cells) (human) (UniProt Q14242)
T1 sequence (looked up): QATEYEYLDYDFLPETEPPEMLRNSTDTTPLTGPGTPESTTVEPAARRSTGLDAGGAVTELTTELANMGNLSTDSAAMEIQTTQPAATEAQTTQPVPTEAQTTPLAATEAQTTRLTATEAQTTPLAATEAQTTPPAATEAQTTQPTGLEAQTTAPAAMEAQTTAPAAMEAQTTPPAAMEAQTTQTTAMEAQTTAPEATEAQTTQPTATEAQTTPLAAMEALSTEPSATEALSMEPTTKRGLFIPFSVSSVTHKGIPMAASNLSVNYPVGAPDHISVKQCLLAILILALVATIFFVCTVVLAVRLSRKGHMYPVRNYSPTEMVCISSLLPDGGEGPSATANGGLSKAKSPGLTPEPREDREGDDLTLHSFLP


Target: T1, 人PSGL-1 (on THP-1 cells) (human)
Assay: flow cytometry competition on THP-1 cells; competitor recombinant human P-selectin/CD62P Fc chimera; antibody 10 μg/mL

fold decrease of CD62P+CD45+/总CD45+细胞 at 10μg/mL | Binder
1.5 倍 | 抗体Rh001-22 (antibody, V domains shown) VH: QVQLLESGPGLVKPSETLSLTCAVSGGSLTSHYWGWIRQPPGKGLEWVGSISGSSGNPEYNPSLKSRATISRDTSENQFSLRVNSVTAADTAVYHCVRWQRLENYFDSWGQGTLVTVSS VL: DIQMTQPPSVSGDPGQRVTISCTGSTSNIGTYYVSWYRQVPGTVPKLLIYENNKRPSGVSDRFSGSKSGTSASLTITGLQPGDEADYYCLAWDDGLSAGLFGGGTKVEIK
2 倍 | 抗体Rh001-6 (antibody, V domains shown) VH: QVQLLESGPGLVKPSETLSLSCTVSGGSISGYYYWSWIRQPPGKGLEWIGGIYGTSGSAYYNPSLKSRVTISKDTSKNQFSLKLSSVTAADTAVYYCTRHASGGANTDLWGQGTLVTVSS VL: DIQMTQSPLSLPVTPGQPASISCRSSQSLVHSDGKTYLNWLQQKPGQPPRRLIYQVSNRDSGVPDRFSGSGAGTDFTLKISRVEAEDVGVYYCGQGTNVPFTFGPGTKVEIK
